From patent US20090305946A1 (University of California, published 2009) come the findings set out here.

In test [1] the target is T1, rat G-protein Gαq in rat hippocampal membranes (rat, UniProt P82471 1-359).
T1 construct: also called Gq
T1 sequence (looked up): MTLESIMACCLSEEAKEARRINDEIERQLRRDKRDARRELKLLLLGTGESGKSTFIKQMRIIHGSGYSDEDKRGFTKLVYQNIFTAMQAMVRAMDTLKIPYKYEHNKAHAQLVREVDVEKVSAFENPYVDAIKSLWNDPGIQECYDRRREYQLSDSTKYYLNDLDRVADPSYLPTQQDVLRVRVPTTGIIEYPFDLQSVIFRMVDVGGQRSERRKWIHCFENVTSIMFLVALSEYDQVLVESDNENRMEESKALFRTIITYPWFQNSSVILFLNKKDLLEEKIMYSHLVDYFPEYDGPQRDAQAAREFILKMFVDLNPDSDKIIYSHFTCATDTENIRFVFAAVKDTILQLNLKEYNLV
Description: stimulation of ^35S-GTPγS binding by the peptide in rat hippocampal membranes. On the technique in general: GTPγS resists hydrolysis and so accumulates on activated G proteins.

Test [2] concerns the target tail-less PS-1 (amino acids 1-430 of PS-1) (human, UniProt P49768 1-430). In words: co-immunoprecipitation with MAb to the PS-1 loop, Western blot with anti-Go. An excerpt:
Verification of the binding of G-protein Gₒ to the cytoplasmic carboxyl terminus of PS-1. A tail-less construct of PS-1 was made in pcDNA3 in which only the cytoplasmic domain of PS-1 immediately following the last TM-domain is deleted (this construct comprises amino acids 1-430). This construct was used to transfect ES (PS-1^{-/-}/PS-2^{-/-}) cells. […] In an identical strategy to the one described above for full-length PS-1, ES (PS-1^{-/-}/PS-2^{-/-}) cells were transfected with cDNAs for tail-less PS-1 and the G-proteins GoA or GoB. Cells extracts were then subjected to immunoprecipitation with PS-1 loop MAb #5232), separated on SDS PAGE and Western blotted with antibodies to Gₒ.
100 μg of extract of ES (PS-1^{-/-}/PS-2^{-/-}) cells co-transfected with cDNAs for tail-less PS-1 and the G-protein GαoA or GαoB were immunoprecipitated with MAb to the large hydrophilic loop of PS-1, followed by Western blot hybridization with affinity purified polyclonal antibody to Gₒ (recognizes both isoforms, GoA and GoB).
For orientation: A western blot detects proteins with antibodies after separation by electrophoresis.

B1: PS-1 cytoplasmic peptide C(21-39), last 19 amino acids of the C-tail (peptide)
peptide: TDYLVQPFMDQLAFHQFYI
notes: Synthetic peptide; also called residues 21-39 of the C-tail
With B1, the binding result in test [1] is reported as “binds”.

B2: human G-protein GαoB (other)
chain: GCTLSAEERAALERSKAIEKNLKEDGISAAKDVKLLLLGAGESGKSTIVKQMKIIHEDGFSGEDVKQYKPVVYSNTIQSLAAIVRAMDTLGIEYGDKERKADAKMVCDVVSRMEDTEPFSAELLSAMMRLWGDSGIQECFNRSREYQLNDSAKYYLDSLDRIGAADYQPTEQDILRTRVKTTGIVETHFTFKNLHFRLFDVGGQRSERKKWIHCFEDVTAIIFCVALSGYDQVLHEDETTNRMHESLKLFDSICNNKWFTDTSIILFLNKKDIFEEKIKKSPLTICFPEYTGPSAFTEAVAYIQAQYESKNKSAHKEIYTHVTCATDTNNIQFVFDAVTDVIIAKNLRGCGLY
notes: Co-transfected with PS constructs in ES double-null cells; assayed in detergent extracts; also called GoB; GOB
As to B2, the binding result in test [2] was “no binding”.

B3: PS-1 cytoplasmic peptide ic3 (KYLPE) (peptide)
peptide: KYLPE
notes: Synthetic peptide; also called loop 3; Cytoplasmic Loop 3 peptide
Consider B3, for which the binding result in test [1] is “binds”.
